Article PMC4597910
Where two headings read alike, the source gives them in different places.

B1: WT UCAGAGGA (ssRNA)
RNA: UCAGAGGA
B2: UCACUGGA mutant (ssRNA)
RNA: UCACUGGA

Assays:
GB1-SRSF1 RRM1+2 [1] = molecular target: T1, GB1-SRSF1 RRM1+2 (UniProt Q07955 16-195); experiment: NMR titration
GB1-SRSF1 RRM1+2 [2] = molecular target: T1, GB1-SRSF1 RRM1+2; experiment: NMR titration; remark: listed apart in the source

T1 sequence (Q07955 16-195): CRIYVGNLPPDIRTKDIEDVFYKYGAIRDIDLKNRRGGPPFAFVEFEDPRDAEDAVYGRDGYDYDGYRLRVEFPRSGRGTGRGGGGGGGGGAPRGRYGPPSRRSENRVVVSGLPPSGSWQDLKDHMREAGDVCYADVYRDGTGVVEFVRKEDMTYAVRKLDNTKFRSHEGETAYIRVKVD

Binder	binding result (GB1-SRSF1 RRM1+2 [1])	binding result (GB1-SRSF1 RRM1+2 [2])
B1	binds	
B2		binds
